Experiments:
[1] = molecular target: soluble collagen type I (pepsin-digested, non-fibrillar, triple helical; BD Biosciences) (human) (UniProt P02452); assay: SPR, saliva injected over immobilized collagen type I, 120 sec at 20 µl/min
[2] = molecular target: soluble collagen type III (pepsin-digested, non-fibrillar; BD Biosciences) (human) (UniProt P02461); assay: SPR, saliva injected over immobilized collagen type III, 120 sec at 20 µl/min
[3] = molecular target: collagen-related peptide (CRP) GCO-(GPO)10-GCOG-NH2, cross-linked; assay: SPR, Aegyptin over immobilized cross-linked (GPO)10 peptide, two-state model
[4] = molecular target: collagen-related peptide (CRP) GCO-(GPO)10-GCOG-NH2, cross-linked; assay: SPR, Aegyptin over immobilized cross-linked (GPO)10 peptide, two-state model; Ka1
[5] = molecular target: collagen-related peptide (CRP) GCO-(GPO)10-GCOG-NH2, cross-linked; assay: SPR, Aegyptin over immobilized cross-linked (GPO)10 peptide, two-state model; Kd1
[6] = molecular target: collagen-related peptide (CRP) GCO-(GPO)10-GCOG-NH2, cross-linked; assay: SPR, Aegyptin over immobilized cross-linked (GPO)10, two-state binding model (the table prints 5.101 µM)
[7] = molecular target: horse tendon insoluble fibrillar Horm collagen (Chrono-Log), collagen I (95%) and III (5%) (horse); assay: cell-based or functional assay

soluble collagen type I (pepsin-digested, non-fibrillar, triple helical; BD Biosciences) (human), sequence (P02452 179-1192 limits assumed, chain 1 of 2): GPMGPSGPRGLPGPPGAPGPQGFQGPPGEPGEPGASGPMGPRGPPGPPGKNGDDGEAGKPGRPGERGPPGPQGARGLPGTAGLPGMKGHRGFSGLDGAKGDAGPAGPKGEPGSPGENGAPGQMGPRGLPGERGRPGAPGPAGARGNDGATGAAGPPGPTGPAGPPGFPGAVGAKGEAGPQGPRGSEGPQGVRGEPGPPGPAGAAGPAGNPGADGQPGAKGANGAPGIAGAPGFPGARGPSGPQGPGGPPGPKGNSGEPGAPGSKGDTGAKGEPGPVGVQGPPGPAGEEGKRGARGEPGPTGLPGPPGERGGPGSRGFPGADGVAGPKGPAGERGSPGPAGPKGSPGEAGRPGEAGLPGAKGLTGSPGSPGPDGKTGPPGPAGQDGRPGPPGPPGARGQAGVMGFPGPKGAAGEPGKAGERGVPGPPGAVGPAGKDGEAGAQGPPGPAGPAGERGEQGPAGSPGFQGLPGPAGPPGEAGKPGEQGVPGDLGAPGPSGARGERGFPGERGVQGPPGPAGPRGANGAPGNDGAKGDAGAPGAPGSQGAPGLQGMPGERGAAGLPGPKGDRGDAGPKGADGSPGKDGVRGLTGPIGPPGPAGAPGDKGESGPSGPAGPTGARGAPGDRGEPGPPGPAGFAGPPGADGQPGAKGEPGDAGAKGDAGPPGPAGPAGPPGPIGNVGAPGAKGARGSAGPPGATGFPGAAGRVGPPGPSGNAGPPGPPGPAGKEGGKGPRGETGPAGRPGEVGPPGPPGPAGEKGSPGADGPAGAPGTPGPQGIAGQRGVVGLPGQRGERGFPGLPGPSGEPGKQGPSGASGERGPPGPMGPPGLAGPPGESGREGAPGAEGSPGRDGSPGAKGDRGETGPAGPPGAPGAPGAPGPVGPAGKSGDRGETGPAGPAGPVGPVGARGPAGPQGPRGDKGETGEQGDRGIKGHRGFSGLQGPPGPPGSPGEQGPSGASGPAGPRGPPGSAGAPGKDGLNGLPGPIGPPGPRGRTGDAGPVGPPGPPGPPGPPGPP
soluble collagen type I (pepsin-digested, non-fibrillar, triple helical; BD Biosciences) (human), sequence (P08123 91-1104 limits assumed, chain 2 of 2, further chain): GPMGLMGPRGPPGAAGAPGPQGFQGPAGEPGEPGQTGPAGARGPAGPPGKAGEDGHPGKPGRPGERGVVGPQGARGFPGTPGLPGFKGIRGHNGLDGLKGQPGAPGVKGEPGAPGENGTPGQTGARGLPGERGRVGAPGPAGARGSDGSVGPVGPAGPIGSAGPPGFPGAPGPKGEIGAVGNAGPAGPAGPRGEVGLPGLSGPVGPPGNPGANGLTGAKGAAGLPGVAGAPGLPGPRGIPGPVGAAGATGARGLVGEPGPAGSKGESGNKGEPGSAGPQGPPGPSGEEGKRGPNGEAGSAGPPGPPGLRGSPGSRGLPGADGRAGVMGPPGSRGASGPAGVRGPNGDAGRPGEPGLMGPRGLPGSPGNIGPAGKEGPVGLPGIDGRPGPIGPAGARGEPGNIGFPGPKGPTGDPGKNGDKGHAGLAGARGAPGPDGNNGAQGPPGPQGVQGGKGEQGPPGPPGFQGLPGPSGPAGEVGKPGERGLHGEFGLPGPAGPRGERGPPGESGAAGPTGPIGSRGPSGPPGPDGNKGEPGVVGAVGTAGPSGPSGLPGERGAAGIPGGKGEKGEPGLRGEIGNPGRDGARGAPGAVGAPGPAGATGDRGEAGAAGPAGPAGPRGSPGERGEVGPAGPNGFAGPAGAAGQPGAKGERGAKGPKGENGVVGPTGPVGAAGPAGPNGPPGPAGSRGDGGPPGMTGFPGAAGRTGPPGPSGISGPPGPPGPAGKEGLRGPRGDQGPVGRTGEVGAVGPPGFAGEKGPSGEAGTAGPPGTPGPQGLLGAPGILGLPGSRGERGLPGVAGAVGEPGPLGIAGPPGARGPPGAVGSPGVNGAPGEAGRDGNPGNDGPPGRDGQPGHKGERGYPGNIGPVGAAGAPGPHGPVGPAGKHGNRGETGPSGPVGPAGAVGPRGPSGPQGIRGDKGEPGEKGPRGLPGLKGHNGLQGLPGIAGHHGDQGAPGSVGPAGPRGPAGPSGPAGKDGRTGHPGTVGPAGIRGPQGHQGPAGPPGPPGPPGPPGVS
soluble collagen type III (pepsin-digested, non-fibrillar; BD Biosciences) (human), sequence (P02461 168-1196 limits assumed): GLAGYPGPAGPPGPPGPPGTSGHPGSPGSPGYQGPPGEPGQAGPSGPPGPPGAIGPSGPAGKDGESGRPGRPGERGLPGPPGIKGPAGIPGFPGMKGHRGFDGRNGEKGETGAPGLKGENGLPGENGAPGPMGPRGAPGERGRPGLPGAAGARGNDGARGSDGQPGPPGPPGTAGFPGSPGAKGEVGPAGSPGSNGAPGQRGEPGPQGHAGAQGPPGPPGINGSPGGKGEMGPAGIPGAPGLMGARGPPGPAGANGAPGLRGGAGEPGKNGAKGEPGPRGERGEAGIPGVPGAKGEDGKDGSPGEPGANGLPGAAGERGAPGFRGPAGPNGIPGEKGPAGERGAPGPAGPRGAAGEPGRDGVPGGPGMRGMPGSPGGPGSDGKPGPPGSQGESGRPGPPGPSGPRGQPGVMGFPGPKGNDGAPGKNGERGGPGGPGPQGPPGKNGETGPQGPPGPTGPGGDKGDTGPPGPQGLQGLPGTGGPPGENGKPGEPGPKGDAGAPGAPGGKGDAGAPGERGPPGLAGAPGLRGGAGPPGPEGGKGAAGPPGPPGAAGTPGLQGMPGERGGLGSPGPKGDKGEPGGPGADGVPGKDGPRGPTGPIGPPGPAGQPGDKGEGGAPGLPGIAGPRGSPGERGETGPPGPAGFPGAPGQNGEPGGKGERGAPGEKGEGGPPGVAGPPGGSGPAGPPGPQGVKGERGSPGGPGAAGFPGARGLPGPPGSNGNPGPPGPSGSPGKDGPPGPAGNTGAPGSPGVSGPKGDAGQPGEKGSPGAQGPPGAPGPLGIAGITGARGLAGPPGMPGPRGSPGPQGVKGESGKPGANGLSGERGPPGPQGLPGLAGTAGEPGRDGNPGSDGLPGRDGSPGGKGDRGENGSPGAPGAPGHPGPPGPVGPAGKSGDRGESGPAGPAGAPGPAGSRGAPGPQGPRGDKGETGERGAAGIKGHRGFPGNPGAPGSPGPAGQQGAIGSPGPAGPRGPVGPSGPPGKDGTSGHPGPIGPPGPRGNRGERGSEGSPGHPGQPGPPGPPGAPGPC

Ae. aegypti saliva (collected by oil-induced salivation)
Response (RU) [1]: 556 RU | Response (RU) [2]: 348 RU

recombinant Aegyptin (mature protein with C-terminal 6xHis tag, expressed in 293-F cells) (from UniProt O01949 20-273)
Kd [3]: 5.1 µM | Kd2 [3]: 0.0289 s⁻¹ | kon [4]: 206000 M⁻¹ s⁻¹ | koff [5]: 1.19 s⁻¹ | Kd [6]: 5.01 µM

Aegyptin C-terminus-2 (137 aa), truncated form without GEEDA repeats (from UniProt O01949 137-273)
collagen-induced platelet aggregation [7]: 3 µM

— US20150010589A1
